Reference: patent US20020009436A1, “Methods and compositions for inhibiting adhesion by microorganisms” (priority 1999, published 2002)

Tested on: S. sobrinus 6715 glucan-binding lectin
Assay: Aggregation of S. sobrinus with high molecular weight dextran T-2000 (standard rate assay)
Type: cell-based, Streptococcus sobrinus
Settings: cells treated with asparaginase
Method: S. sobrinus 6715 was maintained on tryptic soy agar (Difco, Detroit, Mich.) and grown for experiments in Terleckyj's defined medium or tryptic soy broth (TSB) (Difco) pretreated with dextranase (1 mg of enzyme per g dry medium) and invertase (5 mg per g dry medium) for 2 h each in 5% CO2 at 37° C. for 16-18h. Cultures were centrifuged at 12,000×g for 10 min and washed twice with cold phosphate buffered saline (PBS, 20 mM, pH 7.2). Cells were suspended in PBS to an optical density of 0.8 (A540). Cultures grown in TSB were harvested and suspended in PBS and subsequently treated with dextranase for 1 h, followed by washing two times in PBS.
The standard rate assay published by Drake et al. (Drake D. et al. Infect. Immun. 56:1864-1872 (1988)) was used to study the interaction of S. sobrinus 6715 glucan-binding lectin with high molecular weight dextran. Briefly, bacterial suspensions were adjusted to an optical density of 0.75-0.90 in PBS, and 3-ml suspensions were added to test tubes (13×100 mm). Dextran T-2000 was added at a final concentration of 10 1μg/ml and the suspensions were vortexed for 5 sec. Control tubes received PBS. The decrease in optical density was continuously monitored spectrophotometrically for 5 min. Rate constants were obtained from the slopes of first-order plots of ln A/A0 (A=observed optical density; A0 optical density at time zero) versus time in minutes. […]

B1: asparaginase: enzyme that catalyzes hydrolysis of the side chain amide group of asparagine to a carboxyl group; E. coli asparaginase (protein, UniProt P00805 23-348, looked up)
L-asparaginase 2: LPNITILATGGTIAGGGDSATKSNYTVGKVGVENLVNAVPQLKDIANVKGEQVVNIGSQDMNDNVWLTLAKKINTDCDKTDGFVITHGTDTMEETAYFLDLTVKCDKPVVMVGAMRPSTSMSADGPFNLYNAVVTAADKASANRGVLVVMNDTVLDGRDVTKTNTTDVATFKSVNYGPLGYIHNGKIDYQRTPARKHTSDTPFDVSKLNELPKVGIVYNYANASDLPAKALVDAGYDGIVSAGVGNGNLYKSVFDTLATAAKTGTAVVRSSRVPTGATTQDAEVDDAKYGFVASGTLNPQKARVLLQLALTQTKDPQQIQQIFNQY
ability of cells to aggregate high molecular weight dextrans: reduced
